The source of these data is patent publication US20250346651A1 (EMORY UNIVERSITY, published 2025).

The chains are these.
B1: 22-E2C5 (antibody, V domains shown)
VH: QVQLVQSGAEVKKPGASVKVSCRTSGYSFTRYYIHWVRQSPGRGLEWMGIIDPNNGGTTSAKTLLGKVSMTRDTSTSTAHLELTSLGPEDTAVYYCAILYSNGLEVWDYWGQGTLVTVSS
VL: SHELTQPPSVSVSPGQTAQITCSGDTLPDNYAYWYQQRSGQAPVLVVYEDNKRPSGIPERFSGSSSGTMATLTISGAQVEDDADYYCYSSDRSNNFFGGGTKLTVLS
B2: 22-E2B2 (antibody, V domains shown)
VH: QVQLVQSGTEVKKPGASVRVSCKASGYTFTEYYLHWVRQAPGQGLEWMGRINPNSGNTNYAQKFNGRVTMTSDTSVNLAYLEVSGLTSDDTAIYYCTRDDSGAFVYWGQGTLVTVSS
VL: ETVLTQSPATLSLSPGERATLSCRSSQVISSYLAWFQQKPGQAPRLLIYDTSNRATGIPARFSGSGSGTDFTLTISSLEPEDFAVYYCQQRTNWPPREKITFGPGTKVDIK
B3: 22-E2F7 (antibody, V domains shown)
VH: B2 VH with T28S, N54K, F64L, L78V, S101N
VL: B2 VL with T92I, K111R
B4: 22-E2D4 (antibody, V domains shown)
VH: QVQLVQSGAEVKRPGSSVKVSCKASGDNFNNYAFHWVRQAPGQGLEWMGRTIPFLGLTSYSPNIQGRVSISADKSTATAFMEMSGLRSEDTAMYYCASSIRLGDFLYRASYYYSSPLDVWGQGTTVTVSS
VL: EVVLTQSPGTLSLSPGDRATLTCRAGQTISNSYLAWYQQKPGQAPRLLISGVSSRATGIPDRFSGSGSGTDFTLTISRLEPEDFAVYYCQLYGNSPSFGQGTRLEIK
B5: 22-E2G5 (antibody, V domains shown)
VH: EVQVVESGGGLVQPGGSLRLSCAASGFTVNSKFMTWVRQAPGTGLECVSIIYNDGSTYYADSVKGRFTISRDNSKNTLYLQMNRLRPEDTAVYFCARRAFFGGNDDFDIWGQGTLVTVSS
VL: EIVLTQSPGTLSLSPGDRATLSCRAGQSVSSSFLAWYQQRPGQPPRLLIYGASSRATDIPDRFSGSGSGTDFTLTISRLEPEDFAVYYCHQYSSSLPTFGPGTKVEIK
B6: 22-1B10 (antibody, V domains shown)
VH: QVQLVQSGSELRKPGASVTVSCKASGYTFSNHDMSWVRQAPGQGLEWMGWINSNTGNPTYAQGFTGRFVFSLDTSVSTAYLQISSLKSEDTAVYYCAKGGGICSGSRCYSGWFDSWGKGTLVAVSS
VL: QLVLTQSPSASASLGASVKLTCTLSSGHSGYAIAWHQQQPEKGPRYLMKLNSDGTHTKGDGIPDRFSGSSSGAERYLTISSLQSEDEADYYCQTWGTGIQVFGTGTKVTILG
B7: 21-1E2 (antibody, V domains shown)
VH: DVQLAESGGGLVQPGDSLTLSCAASGFIFNNYFMSWVRQTPGKGLEWVSGISANGERSIYADSVKGRFTISRDNSKKTVSLQMNSLSAEDTAIYYCARAGCDSTSCYARVGWFGPWGQGILVTVSS
VL: DVVMTQSPDSLAVSLGERATLNCKSRESVLYTTNNRNYLAWYQQKPGQPPKLLIYWASTRESGVPDRFSGSGSGTDFSLTISSLQAEDVAVYYCQQYLTTPPTFGQGTKVEIK
B8: 21-1H3 (antibody, V domains shown)
VH: QVQLVQSGAEVKKPGSSVKVSCKASGGTFANSGVAWVRQAPGQGLEWMGGLIPVFGAADYAQKFRGRLSITADESSTTAFMELDSLRSDDTAVYYCAKDHFTYNKYFSWFDPWGQGTLVIVSS
VL: QTVVTQEPSLSVSPGGTVTLTCALSSGSVSTSYYPSWYQQTPGQAPRTLIYSTNLRSSGVPDRFSGSILGNKAALTITGAQADDECDYYCVLFMGSGISMFGGGTKLTVL

Changes are numbered by the printed parent chain.

T2 sequence (P03126 whole entry, the tested form may be a part): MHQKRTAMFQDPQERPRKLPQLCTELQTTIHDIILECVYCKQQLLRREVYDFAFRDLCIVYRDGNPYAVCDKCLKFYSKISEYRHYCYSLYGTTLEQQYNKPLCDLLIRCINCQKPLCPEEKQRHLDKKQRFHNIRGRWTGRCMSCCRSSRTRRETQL

In the first assay the target is T1, recombinant MBP-E2 fusion protein (Human papillomavirus type 16, UniProt P03120 1-365, limits assumed).
T1 construct: The legend says only 'MBP-E2'
T1 sequence: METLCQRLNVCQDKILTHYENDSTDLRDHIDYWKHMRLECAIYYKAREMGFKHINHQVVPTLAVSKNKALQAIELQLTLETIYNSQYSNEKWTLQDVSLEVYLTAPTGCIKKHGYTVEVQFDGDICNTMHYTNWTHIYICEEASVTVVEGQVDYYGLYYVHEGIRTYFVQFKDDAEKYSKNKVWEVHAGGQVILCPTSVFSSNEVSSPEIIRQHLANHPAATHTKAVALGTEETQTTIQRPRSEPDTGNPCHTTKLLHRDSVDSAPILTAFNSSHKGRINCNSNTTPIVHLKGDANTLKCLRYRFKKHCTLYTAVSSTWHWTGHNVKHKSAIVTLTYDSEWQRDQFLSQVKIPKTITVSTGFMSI
In words: ELISA, plate coated with MBP-E2, purified antibody. Background: ELISA stands for enzyme-linked immunosorbent assay.
Description: ELISA plates coated with recombinant MBP-E2 fusion protein were incubated with purified human monoclonal antibodies.
Regarding B1, the binding result is recorded as “binds”.

Consider B2, for which the binding result is reported as “binds”.

As to B3, the binding result was “binds”.

For the molecule B4, the binding result is “binds”.

B5: the binding result is given as “binds”.

For B6, the binding result is “binds”.

Another assay addresses T2, recombinant MBP-E6 fusion protein (Human papillomavirus type 16, UniProt P03126 1-158).
T2 construct: The legend says only 'MBP-E6'
In words: ELISA, plate coated with MBP-E6, purified antibody.
Description: ELISA plates coated with recombinant MBP-E6 fusion protein were incubated with purified human monoclonal antibodies.
Regarding B7, the binding result is reported as “binds”.

Take B8: the binding result was “binds”.
